According to publication doi:10.1101/2021.05.06.441046:

Molecular target: VFLIP_D614G spike with Foldon and purification tags enzymatically removed (SARS-CoV-2) (UniProt P0DTC2)
Experiment: cryo-EM structure

## HLX70 Fab (Fab from HLX70, a humanized pan-coronavirus mAb)
  stoichiometry N: 3 Fab:spike
